The record followed here is EP4671273A1 (Anaveon AG, dated 2025).

What is called Kd is the concentration at which binding is half-saturated. Low readings indicate a tighter complex, high ones a looser complex. What is called koff is the rate constant with which the complex falls apart. Lower therefore signals slow dissociation. A word on the kon: it is the rate constant with which the complex forms. Low values mean slower complex formation, high ones faster complex formation.

In experiment [1] the target is human IL-21 receptor (IL-21R) on cells (human, UniProt Q9HBE5 20-538; P31785 23-369). Briefly: cell-based or functional assay.
For experiment [2], the target named is T1, human PD-1 (#PD1-H82E4, AcroBiosystems) (human, UniProt Q15116 25-167).
T1 construct: bought
Briefly: SPR, PD-1 on captured IgG1. A general note: In SPR one partner is held on a chip, and binding of the other changes the refractive index at the surface.

Experiment [3] concerns the target T2, cynomolgus PD-1 (#PD1-C52H5, AcroBiosystems) (cynomolgus monkey, UniProt B0LAJ3 25-170).
T2 construct: bought; also called cynomolgus monkey PD-1; not shown: the vendor's tag on the recombinant protein (AcroBiosystems #PD1-C52H5)
Briefly: SPR, PD-1 on captured IgG1.

T1 sequence (Q15116 25-167 limits assumed): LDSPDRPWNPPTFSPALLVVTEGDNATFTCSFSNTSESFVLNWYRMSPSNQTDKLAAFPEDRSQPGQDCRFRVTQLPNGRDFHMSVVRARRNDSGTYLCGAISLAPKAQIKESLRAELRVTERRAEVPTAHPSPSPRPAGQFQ
T2 sequence (B0LAJ3 entry or part of it limits assumed, form in doubt): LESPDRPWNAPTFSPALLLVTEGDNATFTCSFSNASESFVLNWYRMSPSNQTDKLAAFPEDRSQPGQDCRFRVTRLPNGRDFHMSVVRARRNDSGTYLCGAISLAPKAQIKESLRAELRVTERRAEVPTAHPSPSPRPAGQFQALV
Sequence of human IL-21 receptor (IL-21R) on cells (Q9HBE5 20-538, chain 1 of 2): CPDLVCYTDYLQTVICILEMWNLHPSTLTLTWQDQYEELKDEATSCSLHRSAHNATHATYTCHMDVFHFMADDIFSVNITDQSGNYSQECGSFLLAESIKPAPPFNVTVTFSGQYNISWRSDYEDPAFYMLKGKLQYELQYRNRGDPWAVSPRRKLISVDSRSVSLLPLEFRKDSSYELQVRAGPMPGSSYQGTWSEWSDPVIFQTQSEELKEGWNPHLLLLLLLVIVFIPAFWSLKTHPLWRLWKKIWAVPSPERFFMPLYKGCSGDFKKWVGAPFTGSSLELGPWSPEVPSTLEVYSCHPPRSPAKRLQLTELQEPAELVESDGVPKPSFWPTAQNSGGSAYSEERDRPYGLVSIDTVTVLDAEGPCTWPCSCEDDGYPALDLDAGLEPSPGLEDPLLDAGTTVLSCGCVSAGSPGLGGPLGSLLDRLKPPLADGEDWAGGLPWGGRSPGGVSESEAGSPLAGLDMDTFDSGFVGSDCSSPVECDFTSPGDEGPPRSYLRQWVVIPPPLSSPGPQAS
Sequence of human IL-21 receptor (IL-21R) on cells (P31785 23-369, chain 2 of 2): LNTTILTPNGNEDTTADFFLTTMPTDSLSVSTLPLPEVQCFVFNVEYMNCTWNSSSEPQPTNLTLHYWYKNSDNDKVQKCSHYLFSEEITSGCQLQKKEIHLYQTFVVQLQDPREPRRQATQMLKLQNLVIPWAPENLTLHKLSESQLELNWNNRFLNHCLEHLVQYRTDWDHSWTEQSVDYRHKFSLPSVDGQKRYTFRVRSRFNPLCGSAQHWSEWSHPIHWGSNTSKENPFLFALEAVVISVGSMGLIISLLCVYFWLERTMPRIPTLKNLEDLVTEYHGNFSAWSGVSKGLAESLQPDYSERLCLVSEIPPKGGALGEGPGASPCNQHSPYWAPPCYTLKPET

B1: EFY288 (bispecific antibody, human IgG1, kappa, lambda, L234A L235A)
heavy 1: EVQLLESGGGLVQPGGSLRLSCAASGFTFSINAMTWVRQAPGKGLEWVSTISGSGFSTYYADSLKGRFTISRDNSKNTLYLQMNSLRAEDTAVYYCAKEVYGDYWGQGTLVTVSSASTKGPSVFPLAPSSKSTSGGTAALGCLVKDYFPEPVTVSWNSGALTSGVHTFPAVLQSSGLYSLSSVVTVPSSSLGTQTYICNVNHKPSNTKVDKRVEPKSCDKTHTCPPCPAPEAAGGPSVFLFPPKPKDTLMISRTPEVTCVVVDVSHEDPEVKFNWYVDGVEVHNAKTKPREEQYNSTYRVVSVLTVLHQDWLNGKEYKCKVSNKALAAPIEKTISKAKGQPREPQVCTLPPSREEMTKNQVSLSCAVKGFYPSDIAVEWESNGQPENNYKTTPPVLDSDGSFFLVSKLTVDKSRWQQGNVFSCSVMHEALHNHYTQKSLSLSPGK
light 1: not shown
heavy 2: QVQLQESGPGLVKPSETLSLTCTVSGGSISSDYWGWIRQPPGKGLEWIGYISYRGSTNYNPSLKSRVTISVDTSRNQFSLKLSSVTAADTAVYYCARSAGVTDFDAWGQGTLVTVSSASTKGPSVFPLAPSSKSTSGGTAALGCLVKDYFPEPVTVSWNSGALTSGVHTFPAVLQSSGLYSLSSVVTVPSSSLGTQTYICNVNHKPSNTKVDKRVEPKSCDKTHTCPPCPAPEAAGGPSVFLFPPKPKDTLMISRTPEVTCVVVDVSHEDPEVKFNWYVDGVEVHNAKTKPREEQYNSTYRVVSVLTVLHQDWLNGKEYKCKVSNKALAAPIEKTISKAKGQPREPQVYTLPPCREEMTKNQVSLWCLVKGFYPSDIAVEWESNGQPENNYKTTPPVLDSDGSFFLYSKLTVDKSRWQQGNVFSCSVMHEALHNHYTQKSLSLSPGK
light 2: not shown
As to B1, in experiment [1], the “EC50B, pSTAT3+ Jurkat PD-1 cells, PD-1 blocked” value (shortened to “EC50B, pSTAT3+ Jurkat PD-1 cells”) came to 0.234 nM and the “EC50NB, pSTAT3+ Jurkat PD-1 cells” value was determined as 0.129 nM.

B2: XOW683 (bispecific antibody, human IgG1, kappa, lambda, L234A L235A)
heavy 1: EVQLLESGGGLVQPGGSLRLSCAASGFTFSINAMTWVRQAPGKGLEWVSTISGSGFSTYYADSLKGRFTISRDNSKNTLYLQMNSLRAEDTAVYYCAKEVYGDYWGQGTLVTVSSASTKGPSVFPLAPSSKSTSGGTAALGCLVKDYFPEPVTVSWNSGALTSGVHTFPAVLQSSGLYSLSSVVTVPSSSLGTQTYICNVNHKPSNTKVDKRVEPKSCDKTHTCPPCPAPEAAGGPSVFLFPPKPKDTLMISRTPEVTCVVVDVSHEDPEVKFNWYVDGVEVHNAKTKPREEQYNSTYRVVSVLTVLHQDWLNGKEYKCKVSNKALAAPIEKTISKAKGQPREPQVCTLPPSREEMTKNQVSLSCAVKGFYPSDIAVEWESNGQPENNYKTTPPVLDSDGSFFLVSKLTVDKSRWQQGNVFSCSVMHEALHNHYTQKSLSLSPGK
light 1: not shown
heavy 2: QVQLQESGPGLVKPSETLSLTCTVSGGSISSDYWGWIRQPPGKGLEWIGYISYSGSTNYNPSLKSRVTISVDTSRNQFSLKLSSVTAADTAVYYCARSAGVTDFDAWGQGTLVTVSSASTKGPSVFPLAPSSKSTSGGTAALGCLVKDYFPEPVTVSWNSGALTSGVHTFPAVLQSSGLYSLSSVVTVPSSSLGTQTYICNVNHKPSNTKVDKRVEPKSCDKTHTCPPCPAPEAAGGPSVFLFPPKPKDTLMISRTPEVTCVVVDVSHEDPEVKFNWYVDGVEVHNAKTKPREEQYNSTYRVVSVLTVLHQDWLNGKEYKCKVSNKALAAPIEKTISKAKGQPREPQVYTLPPCREEMTKNQVSLWCLVKGFYPSDIAVEWESNGQPENNYKTTPPVLDSDGSFFLYSKLTVDKSRWQQGNVFSCSVMHEALHNHYTQKSLSLSPGK
light 2: not shown
Turning to B2, in experiment [1], the “EC50B, pSTAT3+ Jurkat PD-1 cells” value turned out to be 1.84 nM and the “EC50NB, pSTAT3+ Jurkat PD-1 cells” value was 0.413 nM.

B3: GWM570 (bispecific antibody, human IgG1, kappa, lambda, L234A L235A)
heavy 1: EVQLLESGGGLVQPGGSLRLSCAASGFTFSINAMTWVRQAPGKGLEWVSTISGSGFSTYYADSLKGRFTISRDNSKNTLYLQMNSLRAEDTAVYYCAKEVYGDYWGQGTLVTVSSASTKGPSVFPLAPSSKSTSGGTAALGCLVKDYFPEPVTVSWNSGALTSGVHTFPAVLQSSGLYSLSSVVTVPSSSLGTQTYICNVNHKPSNTKVDKRVEPKSCDKTHTCPPCPAPEAAGGPSVFLFPPKPKDTLMISRTPEVTCVVVDVSHEDPEVKFNWYVDGVEVHNAKTKPREEQYNSTYRVVSVLTVLHQDWLNGKEYKCKVSNKALAAPIEKTISKAKGQPREPQVCTLPPSREEMTKNQVSLSCAVKGFYPSDIAVEWESNGQPENNYKTTPPVLDSDGSFFLVSKLTVDKSRWQQGNVFSCSVMHEALHNHYTQKSLSLSPGK
light 1: not shown
heavy 2: QVQLQESGPGLVKPSETLSLTCTVSGGSISSDFWGWIRQPPGKGLEWIGYISSRGSTNYNPSLKRRVTISVDTSRNQFSLKLSSVTAADTAVYYCARSAGVTDFDFWGQGTLVTVSSASTKGPSVFPLAPSSKSTSGGTAALGCLVKDYFPEPVTVSWNSGALTSGVHTFPAVLQSSGLYSLSSVVTVPSSSLGTQTYICNVNHKPSNTKVDKRVEPKSCDKTHTCPPCPAPEAAGGPSVFLFPPKPKDTLMISRTPEVTCVVVDVSHEDPEVKFNWYVDGVEVHNAKTKPREEQYNSTYRVVSVLTVLHQDWLNGKEYKCKVSNKALAAPIEKTISKAKGQPREPQVYTLPPCREEMTKNQVSLWCLVKGFYPSDIAVEWESNGQPENNYKTTPPVLDSDGSFFLYSKLTVDKSRWQQGNVFSCSVMHEALHNHYTQKSLSLSPGK
light 2: not shown
As for B3, in experiment [1], the “EC50B, pSTAT3+ Jurkat PD-1 cells” value amounted to 2.13 nM and the “EC50NB, pSTAT3+ Jurkat PD-1 cells” value came to 0.257 nM.

B4: CHU368 (bispecific antibody, human IgG1, kappa, lambda, L234A L235A)
heavy 1: EVQLLESGGGLVQPGGSLRLSCAASGFTFSINAMTWVRQAPGKGLEWVSTISGSGFSTYYADSLKGRFTISRDNSKNTLYLQMNSLRAEDTAVYYCAKEVYGDYWGQGTLVTVSSASTKGPSVFPLAPSSKSTSGGTAALGCLVKDYFPEPVTVSWNSGALTSGVHTFPAVLQSSGLYSLSSVVTVPSSSLGTQTYICNVNHKPSNTKVDKRVEPKSCDKTHTCPPCPAPEAAGGPSVFLFPPKPKDTLMISRTPEVTCVVVDVSHEDPEVKFNWYVDGVEVHNAKTKPREEQYNSTYRVVSVLTVLHQDWLNGKEYKCKVSNKALAAPIEKTISKAKGQPREPQVCTLPPSREEMTKNQVSLSCAVKGFYPSDIAVEWESNGQPENNYKTTPPVLDSDGSFFLVSKLTVDKSRWQQGNVFSCSVMHEALHNHYTQKSLSLSPGK
light 1: not shown
heavy 2: QVQLQESGPGLVKPSETLSLTCTVSGGSISSDYWGWIRQPPGKGLEWIGYISYRGSTNYNPSLKSRVTISVDTSRNQFSLKLSSVTAADTAVYYCARSAGVTDFDAWGQGTLVTVSSASTKGPSVFPLAPSSKSTSGGTAALGCLVKDYFPEPVTVSWNSGALTSGVHTFPAVLQSSGLYSLSSVVTVPSSSLGTQTYICNVNHKPSNTKVDKRVEPKSCDKTHTCPPCPAPEAAGGPSVFLFPPKPKDTLMISRTPEVTCVVVDVSHEDPEVKFNWYVDGVEVHNAKTKPREEQYNSTYRVVSVLTVLHQDWLNGKEYKCKVSNKALAAPIEKTISKAKGQPREPQVYTLPPCREEMTKNQVSLWCLVKGFYPSDIAVEWESNGQPENNYKTTPPVLDSDGSFFLYSKLTVDKSRWQQGNVFSCSVMHEALHNHYTQKSLSLSPGK
light 2: not shown
Turning to B4, in experiment [1], the “EC50B, pSTAT3+ Jurkat PD-1 cells” value was determined as 2.16 nM and the “EC50NB, pSTAT3+ Jurkat PD-1 cells” value came out at 0.583 nM.

B5: KWH245 (antibody, human IgG1, V domains shown)
VH: EVQLLESGGGLVQPGGSLRLSCAASGFTFSINAMTWVRQAPGKGLEWVSTISGSGFSTYYADSLKGRFTISRDNSKNTLYLQMNSLRAEDTAVYYCAKEVYGDYWGQGTLVTVSS
VL: RSVLTQPPSASGTPGQRVSISCSGASSNIGSQSVFTYQQLPGTAPKLLIYSNNQRPSGVPDRFSGSKSGTSASLAISGLRSEDEADYYCAAWDDSLSIWVFGGGTKLTVL
notes: human IgG1
For B5, in experiment [2], the affinity, expressed as Kd, was 183 pM; the koff is 0.000305 s⁻¹; the kon came to 1.67e+06 M⁻¹ s⁻¹. In experiment [3], this molecule registered a Kd of 2290 pM, a koff of 0.000644 s⁻¹ and a kon of 281000 M⁻¹ s⁻¹.

B6: KYC847 (antibody, human IgG1, V domains shown)
VH: EVQLLESGGGLVQPGGSLRLSCAASGFTFSINAMTWVRQAPGKGLEWVSTISGSGFSTYYADSLKGRFTISRDNSKNTLYLQMNSLRAEDTAVYYCAKEVYGDYWGQGTLVTVSS
VL: RSVLTQPPSASGTPGQRVSISCSGASSNIGSQSVFWYQQLPGTAPKLLIYSNNQRPSGVPDRFSGSKSGTSASLAISGLRSEDEADYYCAAWDDSLTIWVFGGGTKLTVL
notes: human IgG1
On to B6, for which, in experiment [2], the Kd is 528 pM, the koff was determined as 7.59e-05 s⁻¹ and the kon was 144000 M⁻¹ s⁻¹. In experiment [3], this molecule returned a Kd of 597 pM, a koff of 0.000139 s⁻¹ and a kon of 233000 M⁻¹ s⁻¹.

B7: NWL270 (antibody, human IgG1, V domains shown)
VH: EVQLLESGGGLVQPGGSLRLSCAASGFTFSINAMTWVRQAPGKGLEWVSTISGSGFSTYYADSLKGRFTISRDNSKNTLYLQMNSLRAEDTAVYYCAKEVYGDYWGQGTLVTVSS
VL: RSVLTQPPSASGTPGQRVSISCSGASSNIGSQSVFWYQQLPGTAPKLLIYSNNQRPSGVPDRFSGSKSGTSASLAISGLRSEDEADYYCAAWDDSLSNWVFGGGTKLTVL
notes: human IgG1
In experiment [2], B7 returned a Kd of 229 pM, a koff of 9.82e-05 s⁻¹ and an on-rate constant (kon) of 429000 M⁻¹ s⁻¹. In addition, in experiment [3], the affinity, expressed as Kd, was 949 pM; the koff worked out at 0.00015 s⁻¹; the kon amounted to 158000 M⁻¹ s⁻¹.

B8: SSR010 (antibody, human IgG1, V domains shown)
VH: EVQLLESGGGLVQPGGSLRLSCAASGFTFSINAMTWVRQAPGKGLEWVSTISGSGFSTYYADSLKGRFTISRDNSKNTLYLQMNSLRAEDTAVYYCAKEVYGDYWGQGTLVTVSS
VL: RSVLTQPPSASGTPGQRVSISCSGASSNVGSQSVFWYQQLPGTAPKLLIYSNNQRPSGVPDRFSGSKSGTSASLAISGLRSEDEADYYCAAWDDSLSIWVFGGGTKLTVL
notes: human IgG1
In experiment [2], B8 showed a Kd of 76.7 pM, a koff of 0.000199 s⁻¹ and a kon of 2.6e+06 M⁻¹ s⁻¹. Besides, in experiment [3], the affinity, expressed as Kd, was 1140 pM; the koff came to 0.000301 s⁻¹; the kon was found to be 263000 M⁻¹ s⁻¹.
